Assay [1] addresses PDGFRβ on DiscoveRx PathHunter U2OS PDGFRβ reporter cells (UniProt P09619 33-1106, limits assumed). Kind of assay: cell-based or functional assay.
Assay [2] concerns the target T1, human VEGFR on human umbilical vein endothelial cells (HUVECs) (human, UniProt P35968 20-1356).
T1 construct: The phosphorylation blots on these cells detect VEGFR2
Kind of assay: flow cytometry on HUVECs, soluble ligand titrated 3 h at 4 C, anti-FLAG-PE. On the procedure: (§1) To test binding to VEGFR, human umbilical vein endothelial cells (HUVECs) and murine angiosarcoma endothelial cells (SVR) were used.
(§2) Cell-binding assay. Varying concentrations of scPDGF, scVEGF, and PDGF/VEGF ligands were incubated with 25,000 PDGFR- or VEGFR-expressing cells in binding buffer (20 mM Tris pH 7.5 with 1 mM MgCl₂, 1 mM MnCl₂, 2 mM CaCl₂, 100 mM NaCl, and 1 mg/ml BSA) for 5 hr (BJ-5ta, NIH/3T3) or 3 hr (HUVEC, SVR) at 4° C. Cells were washed and pelleted, then incubated with 1:100 R-PE-conjugated anti-FLAG antibody (Prozyme) for 15 min on ice. Cells were washed, pelleted, and resuspended in binding buffer immediately before analysis by flow cytometry using BD Accuri C6. Flow cytometry data were analyzed using BD Accuri C6 software, and statistical analysis was performed using GraphPad Prism 6.

Assay [3] has as its target T1, human VEGFR on human umbilical vein …. Briefly: flow cytometry titration of the soluble FLAG-tagged protein on HUVECs, anti-FLAG detection. The procedure:
as §1, §2

Assay [4] addresses T2, soluble PDGFRβ (Fc or His format not stated for the experiment) (human, UniProt P09619 33-532).
T2 construct: extracellular domain
Briefly: yeast surface display, flow cytometry dot plot: soluble receptor bound (FL1) against surface expression (FL2); receptor concentration not printed [Cont.]. (In flow cytometry, cells or beads pass a laser one at a time.)

Assay [5] deals with T3, soluble VEGFR2 (Fc or His format not stated for the experiment) (human, UniProt P35968 20-764).
T3 construct: extracellular domain
The assay is described as above.

Assay [6] has as its target T3, soluble VEGFR2 (Fc or His format not …). Briefly: yeast surface display, flow cytometry dot plot: soluble receptor bound (FL1) against surface expression (FL2); receptor concentration not given.
Assay [7] has as its target T4, PDGFRβ-His (residues 1-314 of PDGFR-β with C-terminal hexahistidine tag) (human, UniProt P09619 33-314).
T4 construct: range 1-314; Monovalent form, expressed in FreeStyle 293-F cells; also called PDGRβ-His; PDGFR-His
Briefly: yeast surface display titration, flow cytometry. The procedure:
(§3) Cells were incubated in large enough volumes to avoid ligand depletion and appropriate time to reach equilibrium. During the last hour of incubation, yeast were incubated with 1:250 dilution of chicken anti-c-Myc (Invitrogen) in PBSA. […] Yeast were washed, pelleted, and resuspended in PBSA immediately before analysis by flow cytometry using BD FACSCalibur or BD Accuri C6. Flow cytometry data were analyzed using FlowJo (v7.6.1 and v10, Treestar) or BD Accuri C6 software. Statistical analysis was performed using GraphPad Prism 6.

Assay [8] deals with T5, VEGFR2-His (residues 1-764 of VEGFR2, Ig-like domains 1-7, with hexahistidine tag) (human, UniProt P35968 20-764).
T5 construct: range 1-764; Monomeric form, expressed in FreeStyle 293-F cells; also called VEGFR-His
Briefly: yeast surface display titration, flow cytometry. The procedure: as §3

Assay [9] has as its target T6, PDGFRβ-Fc (residues 1-314 of PDGFR-β fused to the Fc region of mouse IgG2a) (human; mouse, UniProt P09619 33-314).
T6 construct: range 1-314; Expressed in FreeStyle 293-F cells; also called PDGRβ-Fc; PDGFR-Fc; not shown: Fc region of mouse IgG2a
Briefly: yeast surface display titration, flow cytometry; PDGFRβ-Fc (bivalent). The procedure:
as §3

Assay [10] addresses T4, PDGFRβ-His (residues 1-314 of PDGFR-β …). Briefly: yeast surface display titration, flow cytometry; PDGFRβ-His (monovalent). On the procedure: We tested the monovalent version of PDGFR (PDGRβ-His) to remove any avidity effects that may affect the measurements.
as §3

For assay [11] the target is unchanged. Briefly: yeast surface display, flow cytometry titration of PDGFRβ-His. On the procedure:
as §3

The target of assay [12] is T2, soluble PDGFRβ (Fc or His format not …). Briefly: yeast surface display titration; table under the panel 'PDGFR binding', Fc or His form not given.
For assay [13] the target is unchanged. Kind of assay: yeast surface display, flow cytometry titration of soluble receptor; panel 'PDGFR binding', Fc or His form not given.
Assay [14] concerns the target T7, VEGFR2-Fc (R&D Systems) (human, UniProt P35968 20-764).
T7 construct: extracellular domain; Bought reagent; also called VEGFR-Fc; not shown: Fc part, detected with anti-human-IgG (Fc specific)
Briefly: yeast surface display, flow cytometry titration of VEGFR2-Fc. On the procedure: as §3

The target of assay [15] is T6, PDGFRβ-Fc (residues 1-314 of PDGFR-β …). Kind of assay: yeast surface display, flow cytometry titration of PDGFRβ-Fc. The procedure: as §3
For assay [16], the target named is T4, PDGFRβ-His (residues 1-314 of PDGFR-β …). Briefly: yeast surface display titration, flow cytometry. The procedure:
as §3
The source holds these as a separate data set.

In assay [17] the target is T5, VEGFR2-His (residues 1-764 of VEGFR2, …). Kind of assay: yeast surface display titration, flow cytometry. The procedure: as §3
This is another data set of the same source.

Assay [18] shares this target. Kind of assay: yeast surface display, flow cytometry equilibrium titration of VEGFR2-His, normalized fluorescence. The procedure:
as §3

Read-outs that look alike come from different tables or passages of the source.

T5 sequence (P35968 other isoform, or with tags, fused parts or gaps limits assumed, form in doubt): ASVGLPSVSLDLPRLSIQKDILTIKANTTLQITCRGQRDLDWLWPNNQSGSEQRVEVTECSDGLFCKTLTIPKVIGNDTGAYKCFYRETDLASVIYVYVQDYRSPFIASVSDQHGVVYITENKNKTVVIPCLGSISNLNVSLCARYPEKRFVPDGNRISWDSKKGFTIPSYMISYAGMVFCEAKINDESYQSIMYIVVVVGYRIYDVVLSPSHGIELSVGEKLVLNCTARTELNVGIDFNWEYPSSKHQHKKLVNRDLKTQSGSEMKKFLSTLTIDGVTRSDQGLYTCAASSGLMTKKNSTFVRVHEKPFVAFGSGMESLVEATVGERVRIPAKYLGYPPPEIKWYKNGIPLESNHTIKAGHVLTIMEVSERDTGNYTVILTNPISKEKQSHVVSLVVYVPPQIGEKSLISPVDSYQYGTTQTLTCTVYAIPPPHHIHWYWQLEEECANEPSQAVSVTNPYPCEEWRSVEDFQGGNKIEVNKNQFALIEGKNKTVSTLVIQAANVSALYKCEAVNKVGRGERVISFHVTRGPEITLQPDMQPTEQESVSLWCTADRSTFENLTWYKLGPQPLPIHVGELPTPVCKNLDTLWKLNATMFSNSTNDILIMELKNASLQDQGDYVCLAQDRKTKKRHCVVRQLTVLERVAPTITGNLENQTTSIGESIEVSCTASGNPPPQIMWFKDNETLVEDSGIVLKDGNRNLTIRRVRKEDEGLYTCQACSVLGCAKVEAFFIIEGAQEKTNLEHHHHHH
T3 sequence (P35968 20-764): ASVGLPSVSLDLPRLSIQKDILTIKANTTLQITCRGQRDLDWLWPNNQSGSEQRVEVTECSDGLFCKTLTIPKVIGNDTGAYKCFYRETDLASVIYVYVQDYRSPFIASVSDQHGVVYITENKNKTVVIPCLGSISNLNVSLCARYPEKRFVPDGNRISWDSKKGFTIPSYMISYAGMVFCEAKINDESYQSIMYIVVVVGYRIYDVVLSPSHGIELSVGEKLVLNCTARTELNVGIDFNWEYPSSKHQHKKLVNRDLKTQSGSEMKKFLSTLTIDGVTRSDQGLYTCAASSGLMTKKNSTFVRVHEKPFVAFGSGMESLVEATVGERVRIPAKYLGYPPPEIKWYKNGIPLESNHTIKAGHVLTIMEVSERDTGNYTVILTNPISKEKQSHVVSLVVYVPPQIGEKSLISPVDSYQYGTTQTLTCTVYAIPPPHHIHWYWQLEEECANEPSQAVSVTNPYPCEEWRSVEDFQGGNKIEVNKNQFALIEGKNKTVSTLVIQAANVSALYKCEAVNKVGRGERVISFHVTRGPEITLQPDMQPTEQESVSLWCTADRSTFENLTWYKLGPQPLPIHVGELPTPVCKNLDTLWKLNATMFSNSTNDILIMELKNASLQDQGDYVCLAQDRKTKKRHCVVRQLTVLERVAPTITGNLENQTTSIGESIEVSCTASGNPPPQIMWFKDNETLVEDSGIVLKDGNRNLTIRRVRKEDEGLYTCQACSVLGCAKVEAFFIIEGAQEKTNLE
T2 sequence (P09619 33-532): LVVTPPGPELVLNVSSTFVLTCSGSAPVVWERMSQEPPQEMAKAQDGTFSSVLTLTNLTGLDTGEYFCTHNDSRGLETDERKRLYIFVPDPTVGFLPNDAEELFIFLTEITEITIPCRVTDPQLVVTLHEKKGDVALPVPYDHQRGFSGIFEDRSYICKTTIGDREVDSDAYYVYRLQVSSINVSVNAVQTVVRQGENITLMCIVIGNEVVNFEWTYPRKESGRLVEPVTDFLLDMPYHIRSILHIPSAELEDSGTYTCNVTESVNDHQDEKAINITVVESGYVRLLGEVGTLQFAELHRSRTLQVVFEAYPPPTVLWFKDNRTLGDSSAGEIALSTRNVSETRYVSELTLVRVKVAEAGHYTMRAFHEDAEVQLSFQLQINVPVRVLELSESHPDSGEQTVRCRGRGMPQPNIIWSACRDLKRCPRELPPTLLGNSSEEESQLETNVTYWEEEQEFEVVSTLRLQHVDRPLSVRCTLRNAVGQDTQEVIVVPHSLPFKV
T4 sequence (P09619 other isoform, or with tags, fused parts or gaps limits assumed, form in doubt): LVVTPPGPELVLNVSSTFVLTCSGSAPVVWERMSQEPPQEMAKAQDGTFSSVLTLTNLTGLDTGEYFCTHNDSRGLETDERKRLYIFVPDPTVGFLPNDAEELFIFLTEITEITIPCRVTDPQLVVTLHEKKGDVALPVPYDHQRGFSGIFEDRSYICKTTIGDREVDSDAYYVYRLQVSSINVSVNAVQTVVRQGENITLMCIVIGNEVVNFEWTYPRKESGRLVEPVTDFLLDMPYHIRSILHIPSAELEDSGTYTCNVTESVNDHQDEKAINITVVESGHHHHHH
T6 sequence (P09619 33-314 limits assumed, form in doubt): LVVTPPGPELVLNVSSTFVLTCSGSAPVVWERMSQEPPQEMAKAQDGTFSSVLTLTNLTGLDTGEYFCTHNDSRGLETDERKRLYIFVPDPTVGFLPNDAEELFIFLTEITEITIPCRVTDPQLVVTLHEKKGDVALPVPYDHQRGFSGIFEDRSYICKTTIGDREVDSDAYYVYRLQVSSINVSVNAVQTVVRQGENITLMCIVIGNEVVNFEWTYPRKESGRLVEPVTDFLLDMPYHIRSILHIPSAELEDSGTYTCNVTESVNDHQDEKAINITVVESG
T1 sequence (P35968 20-1356 limits assumed): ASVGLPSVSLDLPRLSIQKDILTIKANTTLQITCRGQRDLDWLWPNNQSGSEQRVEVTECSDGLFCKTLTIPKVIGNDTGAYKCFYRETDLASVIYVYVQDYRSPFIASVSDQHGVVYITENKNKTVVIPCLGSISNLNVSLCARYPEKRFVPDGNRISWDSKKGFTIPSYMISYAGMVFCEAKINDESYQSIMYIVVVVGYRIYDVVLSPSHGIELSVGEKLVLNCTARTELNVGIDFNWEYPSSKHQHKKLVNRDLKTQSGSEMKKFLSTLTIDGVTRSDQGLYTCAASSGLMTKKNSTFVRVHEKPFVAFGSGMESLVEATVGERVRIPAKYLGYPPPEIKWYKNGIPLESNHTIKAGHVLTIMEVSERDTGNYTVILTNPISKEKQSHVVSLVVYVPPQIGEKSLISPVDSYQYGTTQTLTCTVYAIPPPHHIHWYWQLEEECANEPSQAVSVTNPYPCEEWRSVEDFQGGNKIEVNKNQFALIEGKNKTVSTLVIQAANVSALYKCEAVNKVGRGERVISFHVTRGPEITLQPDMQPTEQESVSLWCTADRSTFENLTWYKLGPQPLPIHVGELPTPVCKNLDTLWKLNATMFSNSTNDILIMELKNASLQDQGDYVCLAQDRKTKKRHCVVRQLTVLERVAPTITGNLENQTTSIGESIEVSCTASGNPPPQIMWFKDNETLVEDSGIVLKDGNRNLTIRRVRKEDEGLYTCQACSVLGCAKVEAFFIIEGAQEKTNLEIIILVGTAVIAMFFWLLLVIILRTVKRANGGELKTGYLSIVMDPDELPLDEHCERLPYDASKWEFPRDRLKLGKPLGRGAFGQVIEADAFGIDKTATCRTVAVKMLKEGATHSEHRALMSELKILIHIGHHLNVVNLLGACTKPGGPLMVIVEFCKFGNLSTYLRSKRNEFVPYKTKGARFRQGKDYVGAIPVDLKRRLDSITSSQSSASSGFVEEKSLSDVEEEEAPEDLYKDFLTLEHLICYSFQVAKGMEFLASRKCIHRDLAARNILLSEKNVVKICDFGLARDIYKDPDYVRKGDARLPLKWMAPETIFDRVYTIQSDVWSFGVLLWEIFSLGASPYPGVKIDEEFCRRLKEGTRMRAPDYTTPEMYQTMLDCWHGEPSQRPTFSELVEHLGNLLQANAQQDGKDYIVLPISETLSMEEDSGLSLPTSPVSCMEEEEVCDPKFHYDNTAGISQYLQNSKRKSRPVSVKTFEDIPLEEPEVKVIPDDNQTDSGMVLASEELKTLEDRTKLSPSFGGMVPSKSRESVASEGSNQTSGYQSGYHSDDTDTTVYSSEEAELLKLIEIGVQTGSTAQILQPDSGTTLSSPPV
Sequence of PDGFRβ on DiscoveRx PathHunter U2OS PDGFRβ reporter cells (P09619 33-1106 limits assumed): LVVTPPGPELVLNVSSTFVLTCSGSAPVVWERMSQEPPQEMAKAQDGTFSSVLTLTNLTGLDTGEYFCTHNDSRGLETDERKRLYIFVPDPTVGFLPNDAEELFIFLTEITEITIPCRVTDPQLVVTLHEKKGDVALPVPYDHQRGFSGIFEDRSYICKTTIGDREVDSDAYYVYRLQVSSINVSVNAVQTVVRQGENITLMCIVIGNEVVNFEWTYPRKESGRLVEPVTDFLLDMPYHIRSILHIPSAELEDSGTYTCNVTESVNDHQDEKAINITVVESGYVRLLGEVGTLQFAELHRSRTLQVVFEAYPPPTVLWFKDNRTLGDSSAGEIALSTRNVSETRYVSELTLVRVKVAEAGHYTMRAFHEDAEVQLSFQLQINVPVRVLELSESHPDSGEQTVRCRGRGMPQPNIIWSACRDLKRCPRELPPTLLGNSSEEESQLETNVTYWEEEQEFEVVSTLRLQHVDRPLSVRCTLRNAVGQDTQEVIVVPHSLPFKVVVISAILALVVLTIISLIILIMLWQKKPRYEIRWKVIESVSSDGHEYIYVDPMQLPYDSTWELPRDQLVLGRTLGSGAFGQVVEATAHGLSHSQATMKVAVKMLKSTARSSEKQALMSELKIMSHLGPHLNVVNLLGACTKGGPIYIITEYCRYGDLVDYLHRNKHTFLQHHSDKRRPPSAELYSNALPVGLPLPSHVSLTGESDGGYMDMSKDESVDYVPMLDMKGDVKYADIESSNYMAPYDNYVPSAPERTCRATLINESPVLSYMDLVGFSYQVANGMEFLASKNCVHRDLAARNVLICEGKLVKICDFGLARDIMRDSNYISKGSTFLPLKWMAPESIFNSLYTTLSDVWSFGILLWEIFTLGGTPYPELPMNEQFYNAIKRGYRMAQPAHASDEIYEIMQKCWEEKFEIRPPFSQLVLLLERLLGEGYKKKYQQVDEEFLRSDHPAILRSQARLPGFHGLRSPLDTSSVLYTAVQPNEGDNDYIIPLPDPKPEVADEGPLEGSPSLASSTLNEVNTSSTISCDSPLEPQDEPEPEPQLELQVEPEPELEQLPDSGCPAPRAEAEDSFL
T7 sequence (P35968 20-764): as the sequence (P35968 20-764) above

B1: PVAM-S (PV R32A), soluble, FLAG and hexahistidine tags (designed binder)
chain: DYKDDDDKIAEPAMIAECHPIETLVDILQEYPDEIGYIFKPSCVPLMRCGGCCNNRNVQCRPTEESNITMQIMRIKPHRGQHIGEMSFLQHNKCRCETVAAGSTSGSGKSSEGKGEVVKFMDVYQRSYCKTRTEVFEISRRLIDATNANFLVWPPCVEVQRCSGCCNHEGLECVPTQVQLRPVQVRKIEFVRKKPIFKKATVTLEDHLACECRPKKDHHHHHH
notes: Secreted from S. cerevisiae YVH10 and treated with Endo Hf
By EC50 (read off the curve) is commonly meant the concentration that produces a half-maximal response. The low end stands for a more potent agent, the high end for a less potent agent. Turning to B1, the “IC50 of inhibition of stimulation by 0.5 nM PDGF-BB, PathHunter PDGFRβ reporter cells” value in [1] came to 1.4 nM. Also, in assay [2], the Kd came to 0.53 nM. In assay [3], the “EC50 (read off the curve)” value is roughly 0.7 nM.

B2: PV3 PDGF/VEGF hybrid construct, yeast-displayed (designed binder)
chain: IAEPAMIAECKTRTEVVDIFQEYPDEIEYIFKPSCVPLMRCSGCCNNRNVQCRPTEESNITMQIMRIKPHQGQHIGEMSFLQHLACKCETVAAGSTSGSGKSSEGKGEVVKFMDVYQRSYCHPIETLFEISRRLIDRTNANFLVWPPCVEVQRCGGCCNDEGLECVPTQVQLRPVQVRKIEIVRKKPIFKKATVTLEDHNKCECRPKKD
notes: only PV1
B2: the binding result in assay [4] and in assay [5] was “no binding” each time.

B3: PV8 PDGF/VEGF hybrid construct, yeast-displayed (designed binder)
chain: IAEPAMIAECKTIETLVDIFQEYPDEIEYIFKPSCVPLMRCSGCCNNRNVQCRPTEESNITMQIMRIKPHQGQHIGEMSFLQHLACKCETVAAGSTSGSGKSSEGKGEVVKFMDVYQRSYCHPRTEVFEISRRLIDRTNANFLVWPPCVEVQRCGGCCNDEGLECVPTQVQLRPVQVRKIEIVRKKPIFKKATVTLEDHNKCECRPKKD
notes: the text names only PV6
On to B3, for which the binding result in [6] is on record as “binds”.

B4: PV4 PDGF/VEGF hybrid construct, yeast-displayed (designed binder)
chain: IAEPAMIAECKTRTEVFDIFQEYPDEIEYIFKPSCVPLMRCSGCCNNRNVQCRPTEESNITMQIMRIKPHQGQHIGEMSFLQHLACKCETVAAGSTSGSGKSSEGKGEVVKFMDVYQRSYCHPIETLVEISRRLIDRTNANFLVWPPCVEVQRCGGCCNDEGLECVPTQVQLRPVQVRKIEIVRKKPIFKKATVTLEDHNKCECRPKKD
notes: only PV1
B4: the binding result in [4] and in assay [5] was “no binding” each time.

B5: PV7 PDGF/VEGF hybrid construct, yeast-displayed (designed binder)
chain: IAEPAMIAECKTRETLVDIFQEYPDEIEYIFKPSCVPLMRCSGCCNNRNVQCRPTEESNITMQIMRIKPHQGQHIGEMSFLQHNKCKCETVAAGSTSGSGKSSEGKGEVVKFMDVYQRSYCHPITEVFEISRRLIDRTNANFLVWPPCVEVQRCGGCCNDEGLECVPTQVQLRPVQVRKIEIVRKKPIFKKATVTLEDHLACECRPKKD
notes: the text names only PV6
As for B5, in assay [6], the binding result is reported as “binds”.

B6: PV5 PDGF/VEGF hybrid construct, yeast-displayed (designed binder)
chain: IAEPAMIAECKTRTEVFEIFQEYPDEIEYIFKPSCVPLMRCSGCCNNRNVQCRPTEESNITMQIMRIKPHQGQHIGEMSFLQHLACKCETVAAGSTSGSGKSSEGKGEVVKFMDVYQRSYCHPIETLVDISRRLIDRTNANFLVWPPCVEVQRCGGCCNDEGLECVPTQVQLRPVQVRKIEIVRKKPIFKKATVTLEDHNKCECRPKKD
notes: only PV1
With B6, the binding result in [4] and in assay [5] was “no binding” each time.

B7: PV6 PDGF/VEGF chimera, yeast-displayed (designed binder)
chain: IAEPAMIAECHPIETLVDIFQEYPDEIEYIFKPSCVPLMRCGGCCNNRNVQCRPTEESNITMQIMRIKPHQGQHIGEMSFLQHNKCKCETVAAGSTSGSGKSSEGKGEVVKFMDVYQRSYCKTRTEVFEISRRLIDRTNANFLVWPPCVEVQRCSGCCNDEGLECVPTQVQLRPVQVRKIEIVRKKPIFKKATVTLEDHLACKCRPKKD
With B7, the Kd in assay [7] was found to be 270 nM; in assay [8] it was 230 nM; in assay [9], 0.099 nM; in assay [10], 140 nM; in [12], 140 nM. Besides, the “EC50 (read off the curve)” value in assay [11] and in assay [13] was roughly 100 nM in each case.

B8: V3-3, yeast-displayed variant from the Vshuf library (designed binder)
chain: IAEPAVIAECHPIETLVDILQEYPDEIGYIFKPSCVPLMRCGGCCNNRNVQCRPTEESNITMQIMRIKPHRGQHIGEMSFLQHNKCKCETVAAGSTSGSGKSSEGKGEVVKFMDVYQRSYCKTRTEVFEISRRLIDRTNANFLVWPPCVEVQRCSGCCNHEGLECVPTQVQLRPVQVRKIEIVRKKPIFKKATVTLEDHLACECRPKKD
As to B8, the binding result in [14] was “binds”.

B9: PV6 K87R variant, yeast-displayed (designed binder)
chain: IAEPAMIAECHPIETLVDIFQEYPDEIEYIFKPSCVPLMRCGGCCNNRNVQCRPTEESNITMQIMRIKPHQGQHIGEMSFLQHNKCRCETVAAGSTSGSGKSSEGKGEVVKFMDVYQRSYCKTRTEVFEISRRLIDRTNANFLVWPPCVEVQRCSGCCNDEGLECVPTQVQLRPVQVRKIEIVRKKPIFKKATVTLEDHLACKCRPKKD
notes: Clone from the PDGFR sorts of the error-prone library made from PV6; also called PV K87R
In the case of B9, the Kd in [9] was found to be 0.049 nM; in assay [10] it was 6.4 nM. In addition, the “EC50 (read off the curve)” value in [15] is roughly 0.05 nM; in assay [11], roughly 6 nM.

B10: PVAM-S (PV R32A), yeast-displayed (designed binder)
chain: IAEPAMIAECHPIETLVDILQEYPDEIGYIFKPSCVPLMRCGGCCNNRNVQCRPTEESNITMQIMRIKPHRGQHIGEMSFLQHNKCRCETVAAGSTSGSGKSSEGKGEVVKFMDVYQRSYCKTRTEVFEISRRLIDATNANFLVWPPCVEVQRCSGCCNHEGLECVPTQVQLRPVQVRKIEFVRKKPIFKKATVTLEDHLACECRPKKD
notes: PVAM with R137A (R32A in PDGF-B numbering); also called R137A variant
As for B10, the Kd turned out to be 0.34 nM in assay [16] and 1 nM in assay [17]. Also, the “EC50 (read off the curve)” value in assay [18] was roughly 1 nM.

B11: PV6 I182F variant, yeast-displayed (designed binder)
chain: IAEPAMIAECHPIETLVDIFQEYPDEIEYIFKPSCVPLMRCGGCCNNRNVQCRPTEESNITMQIMRIKPHQGQHIGEMSFLQHNKCKCETVAAGSTSGSGKSSEGKGEVVKFMDVYQRSYCKTRTEVFEISRRLIDRTNANFLVWPPCVEVQRCSGCCNDEGLECVPTQVQLRPVQVRKIEFVRKKPIFKKATVTLEDHLACECRPKKD
notes: Clone from the PDGFR sorts of the error-prone library made from PV6; also called PV I182F
Regarding B11, the Kd in assay [9] was 0.067 nM; in assay [10], 2.5 nM. For the same molecule, the “EC50 (read off the curve)” value was roughly 0.07 nM in assay [15] and roughly 3 nM in assay [11].

Source of the values: patent publication US20180111972A1 (Stanford University, published 2018).
